Measurements: patent publication US20150067898

System: ssAPC14.2 TALEN right monomer (Xanthomonas TALE-FokI (artificial)?)
Assay: cell_activity
Conditions: pair with p5; repeat 50%; pig fibroblasts

With “ACAGAAATTCTGGGT (double strand) [APC14.2 right half-site]” the activity was 48 % HDR day 3.
